Experimental data from the supplement of paper PMC10126150.
± gives the standard deviation of the averaged measurements.

test system: ATP; experiment: switch fluorescence ratio, 500 uM ATP over buffer (Cy3 cluster intensity, sum of 5 cycles each) (fold (ratio)); higher = stronger signal-on switching upon ATP binding; sequences stand for … in TCGTCGGCAGCGTCAGATGTGTATAAGAGACAGTTTTTTTTTTTTTTTTTTTTTTTTT…TC; conditions: aptamer strand: ATP DNA aptamer (quencher-CACCTGGGGGAGTATTGCGGAGGAAGG + anchor), 100 nM annealed; ATP concentration: 500 uM
In short: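 The quencher-labelled ATP aptamer, at 100 nM, was annealed to Cy3-labelled switching-strand clusters on a modified Illumina MiSeq flow-cell. The clusters were imaged in selection buffer, then after 15 min with 500 uM ATP at 22 °C, and this buffer/ATP cycle ran five times with NaOH stripping and re-annealing between runs. Per-cluster fluorescence ratios, summed target-cycle over summed buffer-cycle Cy3 intensity, were averaged per switch-domain sequence. Clusters outside 100-1000 RFU were excluded.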
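Also: ATP exposure 15 min at 22 °C before imaging.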

In order of rising switch fluorescence ratio:
1. AGTGGTGGCG  0.9 ± 0.082
2. AGTATTGCAG  0.9322 ± 0.002
3. AGTATGCATA  0.951 ± 0.016
4. AGTTAACAGC  0.959 ± 0.04
5. AGTATCACAG  0.9621 ± 0.0047
6. AGTGTAAGCC  0.9622 ± 0.0067
7. AGTCTATCTG  0.964 ± 0.03
8. AGTCTGGGTA  0.965 ± 0.016
9. AGTAGGGTGT  0.968 ± 0.029
10. AGTCTTAGGG  0.972 ± 0.023
11. AGTGCGTCTC  0.975 ± 0.012
12. AGTGGAACTT  0.976 ± 0.036
13. AGTGAGCTGA  0.9769 ± 0.0069
14. AGTGCTTGAG  0.977 ± 0.043
15. AGTATGAGGT  0.98 ± 0.012
16. AGTCTGTCGT  0.98 ± 0.039
17. AGTGTTGCAG  0.98 ± 0.048
18. AGTAGTATCT  0.981 ± 0.03
19. AGTCAGATGG  0.981 ± 0.025
20. AGTGAGCTTG  0.9818 ± 0.0038
21. AGTATAGACC  0.983 ± 0.01
22. AGTCGTTGGG  0.984 ± 0.015
23. AGTATATAGG  0.986 ± 0.018
24. AGTCGAGCTA  0.986 ± 0.021
25. AGTGGGGATA  0.986 ± 0.039
26. AGTATATGGG  0.988 ± 0.023
27. AGTGCGATGT  0.988 ± 0.016
28. AGTGGGTTTT  0.988 ± 0.043
29. AGTGCAGAGA  0.989 ± 0.028
30. AGTAGGGGGA  0.9912 ± 0.0034
31. AGTATCTTTA  0.9913 ± 0.0096
32. AGTGGGGGGG  0.991 ± 0.049
33. AGTGGGGGGT  0.991 ± 0.03
34. AGTGGGTGGG  0.9921 ± 0.0049
35. AGTTAAGGGT  0.9925 ± 0.0071
36. AGTCCAATGT  0.993 ± 0.021
37. AGTCGGACTT  0.993 ± 0.01
38. AGTCGGCTGT  0.99449 ± 0.00015
39. AGTAGAGGGA  0.995 ± 0.019
40. AGTAGAGTGT  0.995 ± 0.04
41. AGTAGATTGG  0.995 ± 0.028
42. AGTATGTTTT  0.995 ± 0.0076
43. AGTGAGTCTG  0.995 ± 0.053
44. AGTCTGGATC  0.9959 ± 0.0084
45. AGTGATGAAG  0.996 ± 0.037
46. AGTGGCATAG  0.996 ± 0.022
47. AGTGGGCTTT  0.996 ± 0.037
48. AGTGTTTGG  0.997 ± 0.02
49. AGTCTTTTTG  0.999 ± 0.03
50. AGTAATTTTT  1 ± 0.018
51. AGTAGGCAAG  1 ± 0.035
52. AGTAGGGCTC  1 ± 0.046
53. AGTATTTGGT  1 ± 0.025
54. AGTATTTGTA  1 ± 0.02
55. AGTCAGGGGG  1 ± 0.028
56. AGTCTGCTCG  1 ± 0.018
57. AGTGAAAATT  1 ± 0.038
58. AGTGATGTGT  1 ± 0.017
59. AGTGGGGCGT  1 ± 0.016
60. AGTGTTCGGG  1 ± 0.043
61. AGTAATTTTG  1.01 ± 0.065
62. AGTAGGAAGG  1.01 ± 0.019
63. AGTAGGCAAA  1.01 ± 0.014
64. AGTAGGCAGC  1.01 ± 0.033
65. AGTAGGCGCT  1.01 ± 0.048
66. AGTAGTTGCC  1.014 ± 0.0021
67. AGTATAAAAT  1.01 ± 0.018
68. AGTATAGAGT  1.01 ± 0.037
69. AGTATAGGGG  1.006 ± 0.007
70. AGTATTTTGG  1.01 ± 0.018
71. AGTCATGTGG  1.01 ± 0.019
72. AGTCTTCTGG  1.01 ± 0.026
73. AGTGAGGCGC  1.01 ± 0.024
74. AGTGATATTA  1.01 ± 0.022
75. AGTGGGGGG  1.0071 ± 0.001
76. AGTGGGTATA  1.01 ± 0.02
77. AGTGTGCTGG  1.01 ± 0.043
78. AGTTAACTCA  1.013 ± 0.0056
79. AGTAGGGGT  1.02 ± 0.054
80. AGTAGTGGGT  1.02 ± 0.056
81. AGTATGTATG  1.02 ± 0.024
82. AGTCAGTTTT  1.024 ± 0.0078
83. AGTGGAGTCA  1.02 ± 0.035
84. AGTAGTTATA  1.03 ± 0.093
85. AGTGGAGGGC  1.03 ± 0.036
86. AGTGTGCATG  1.03 ± 0.013
87. AGTAGATTCC  1.042 ± 0.01
88. AGTAGGTTTT  1.04 ± 0.078
89. AGTCTAGGGC  1.04 ± 0.017
90. AGTCCGGAGT  1.05 ± 0.023
91. AGTGAAAATG  1.05 ± 0.029
92. AGTAGAGCCT  1.061 ± 0.0069
93. AGTCCGGGTA  1.08 ± 0.17
94. AGTGTACCCA  1.077 ± 0.01
95. AGTCATGAAA  1.11 ± 0.12
96. AGTGGGATAA  1.11 ± 0.099
97. AGTCCCAAGG  1.13 ± 0.2
98. AGTTAAAGCT  1.151 ± 0.0063
99. AGTAGCAAAT  1.2 ± 0.13
100. AGTGCCCAGG  2.4 ± 1.6
